Source: the supplement of paper PMC9112550, “Optimization of the antimicrobial peptide Bac7 by deep mutational scanning” (BMC Biology, 2022)

What follows are sequences tested on Escherichia coli TOP10 (assay: shrunken log2 fold change of peptide-encoding DNA abundance (4.5 h post-induction vs induction); higher = less antimicrobial activity (less host growth inhibition)). Conditions: time post-induction: 4.5 h; library: site-saturation at positions 5, 18, 19, 20.
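Note: peptides expressed intracellularly from a pBAD plasmid library in pooled LB shake-flask culture, induced with 0.3% L-arabinose, DNA abundance read by NGS, three biological replicates, DESeq2 with apeglm shrinkage.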

Sequence	shrunken log2 fold change
RRIRKRPPRLPRPRPRPKEHPRP	0.405
RRIRHRPPRLPRPRPRPIMNPRP	-1.05
RRIRGRPPRLPRPRPRPDYHPRP	-0.139
RRIRSRPPRLPRPRPRPFKIPRP	-0.466
RRIRPRPPRLPRPRPRPGFVPRP	0.143
RRIRERPPRLPRPRPRPQGYPRP	0.0039
RRIRQRPPRLPRPRPRPLWFPRP	-0.0512
RRIRHRPPRLPRPRPRPCCQPRP	-0.243
RRIRSRPPRLPRPRPRPDCMPRP	-0.165
RRIRQRPPRLPRPRPRPALNPRP	-0.0345
RRIRHRPPRLPRPRPRPWSHPRP	0.0143
RRIRMRPPRLPRPRPRPGKWPRP	0.204
RRIRRRPPRLPRPRPRPINYPRP	-0.196
RRIRHRPPRLPRPRPRPVVEPRP	-0.0145
RRIRRRPPRLPRPRPRPNAIPRP	-0.116
RRIRKRPPRLPRPRPRPGYLPRP	-0.319
RRIRLRPPRLPRPRPRPQSKPRP	-0.224
RRIRLRPPRLPRPRPRPKLHPRP	0.108
RRIRHRPPRLPRPRPRPTHSPRP	-0.192
RRIRSRPPRLPRPRPRPAQNPRP	0.241
RRIRARPPRLPRPRPRPYVDPRP	-0.16
RRIRERPPRLPRPRPRPDWVPRP	0.0322
RRIRFRPPRLPRPRPRPPCQPRP	3.46
RRIRLRPPRLPRPRPRPFHKPRP	-0.54
RRIRSRPPRLPRPRPRPLSYPRP	-0.464

Sequence	shrunken log2 fold change
RRIRIRPPRLPRPRPRPYWWPRP	-0.259
RRIRHRPPRLPRPRPRPTQVPRP	0.172
RRIRWRPPRLPRPRPRPSGLPRP	0.155
RRIRVRPPRLPRPRPRPPMQPRP	0.152
RRIRRRPPRLPRPRPRPRNNPRP	-0.204
RRIRTRPPRLPRPRPRPIRCPRP	0.0185
RRIRDRPPRLPRPRPRPHNHPRP	-0.612
RRIRWRPPRLPRPRPRPKRVPRP	0.383
RRIRTRPPRLPRPRPRPCGAPRP	0.0999
RRIRPRPPRLPRPRPRPQLQPRP	-0.167
RRIRKRPPRLPRPRPRPISQPRP	0.113
RRIRFRPPRLPRPRPRPKAKPRP	-0.016
RRIRCRPPRLPRPRPRPGLRPRP	0.147
RRIRHRPPRLPRPRPRPKLTPRP	-0.0624
RRIRIRPPRLPRPRPRPRVWPRP	0.618
RRIRVRPPRLPRPRPRPYYGPRP	-0.203
RRIRLRPPRLPRPRPRPSRYPRP	-0.0576
RRIRIRPPRLPRPRPRPYVQPRP	-0.311
RRIRERPPRLPRPRPRPVSPPRP	-0.33
RRIRSRPPRLPRPRPRPHKDPRP	-0.534
RRIRMRPPRLPRPRPRPDTLPRP	-0.122
RRIRERPPRLPRPRPRPNTMPRP	-0.122
RRIRSRPPRLPRPRPRPPKLPRP	-0.11
RRIRWRPPRLPRPRPRPTAIPRP	0.806
RRIRHRPPRLPRPRPRPIYRPRP	-0.111

Sequence	shrunken log2 fold change
RRIRDRPPRLPRPRPRPLCYPRP	0.00826
RRIRPRPPRLPRPRPRPSQGPRP	-0.418
RRIRIRPPRLPRPRPRPWCCPRP	-0.481
RRIRYRPPRLPRPRPRPPGVPRP	0.259
RRIRKRPPRLPRPRPRPAAEPRP	1.12
RRIRPRPPRLPRPRPRPAGDPRP	0.387
RRIRVRPPRLPRPRPRPYEIPRP	-0.14
RRIRIRPPRLPRPRPRPKAPPRP	-0.0151
RRIRNRPPRLPRPRPRPMCGPRP	-0.301
RRIRNRPPRLPRPRPRPGVVPRP	0.176
RRIRWRPPRLPRPRPRPLEAPRP	0.668
RRIRWRPPRLPRPRPRPRDTPRP	0.11
RRIRPRPPRLPRPRPRPMQWPRP	0.169
RRIRVRPPRLPRPRPRPKQFPRP	0.109
RRIRRRPPRLPRPRPRPKGTPRP	0.25
RRIRTRPPRLPRPRPRPFWLPRP	-0.0299
RRIRFRPPRLPRPRPRPKAIPRP	-0.0919
RRIRRRPPRLPRPRPRPHWEPRP	0.127
RRIRCRPPRLPRPRPRPMERPRP	-0.00088
RRIRDRPPRLPRPRPRPARQPRP	0.212
RRIRKRPPRLPRPRPRPRYGPRP	-0.238
RRIRQRPPRLPRPRPRPHDHPRP	-0.0539
RRIRTRPPRLPRPRPRPEHSPRP	-0.237
RRIRLRPPRLPRPRPRPLPIPRP	-0.129
RRIRMRPPRLPRPRPRPNIKPRP	-0.266

Sequence	shrunken log2 fold change
RRIRPRPPRLPRPRPRPCLMPRP	-0.393
RRIRVRPPRLPRPRPRPMLAPRP	0.446
RRIRVRPPRLPRPRPRPFFTPRP	0.00087
RRIRSRPPRLPRPRPRPENVPRP	0.0202
RRIRERPPRLPRPRPRPWFTPRP	-0.187
RRIRVRPPRLPRPRPRPNMLPRP	-0.432
RRIRRRPPRLPRPRPRPKWFPRP	-0.0159
RRIRERPPRLPRPRPRPGSRPRP	-0.0607
RRIRSRPPRLPRPRPRPKMKPRP	0.912
RRIRQRPPRLPRPRPRPFYHPRP	-0.368
RRIRFRPPRLPRPRPRPGYLPRP	-0.0745
RRIRFRPPRLPRPRPRPTWWPRP	0.494
RRIRLRPPRLPRPRPRPDHGPRP	-0.147
RRIRERPPRLPRPRPRPMMNPRP	-0.122
RRIRSRPPRLPRPRPRPVTSPRP	-0.132
RRIRYRPPRLPRPRPRPTTPPRP	-0.437
RRIRKRPPRLPRPRPRPHTWPRP	0.0484
RRIRSRPPRLPRPRPRPGFNPRP	-0.038
RRIRQRPPRLPRPRPRPPQTPRP	0.33
RRIRTRPPRLPRPRPRPNPCPRP	0.0479
RRIRNRPPRLPRPRPRPGRFPRP	0.327
RRIRERPPRLPRPRPRPEMDPRP	0.125
RRIRHRPPRLPRPRPRPRNRPRP	0.672
RRIRNRPPRLPRPRPRPRIDPRP	-0.0916
RRIRDRPPRLPRPRPRPFFGPRP	1.19

Sequence	shrunken log2 fold change
RRIRYRPPRLPRPRPRPAKKPRP	0.0499
RRIRTRPPRLPRPRPRPWSWPRP	-0.0374
RRIRARPPRLPRPRPRPWFDPRP	-0.178
RRIRIRPPRLPRPRPRPGNRPRP	-0.0134
RRIRMRPPRLPRPRPRPRGPPRP	0.684
RRIRMRPPRLPRPRPRPKIQPRP	0.158
RRIRRRPPRLPRPRPRPMHWPRP	0.148
RRIRHRPPRLPRPRPRPMGLPRP	0.00622
RRIRSRPPRLPRPRPRPMLFPRP	-0.196
RRIRYRPPRLPRPRPRPDNEPRP	-0.258
RRIRLRPPRLPRPRPRPYYHPRP	-0.712
RRIRLRPPRLPRPRPRPSSCPRP	-0.277
RRIRWRPPRLPRPRPRPTTGPRP	0.384
RRIRRRPPRLPRPRPRPMISPRP	0.044
RRIRLRPPRLPRPRPRPKVAPRP	-0.0483
RRIRGRPPRLPRPRPRPEKFPRP	0.716
RRIRHRPPRLPRPRPRPVFRPRP	0.0291
RRIRFRPPRLPRPRPRPPYSPRP	-0.235
RRIRSRPPRLPRPRPRPKPQPRP	0.524
RRIRMRPPRLPRPRPRPDLQPRP	0.461
RRIRDRPPRLPRPRPRPGPFPRP	0.174
RRIRQRPPRLPRPRPRPGQSPRP	-0.0203
RRIRARPPRLPRPRPRPHKMPRP	0.118
RRIRPRPPRLPRPRPRPAGFPRP	0.301
RRIRGRPPRLPRPRPRPYCLPRP	-0.305
